Data on one molecule can be found in patent USRE48137E1, “Multivalent vaccine protection from Staphylococcus aureus infection” (UNIVERSITY OF MARYLAND, BALTIMORE, priority 2012, dated 2020).

This assay concerns S. aureus MRSA-M2. Nature of the assay: murine tibial implant model of S. aureus infection. The note with it: C57BL/6 mice, tibiae CFU at 21 days post-challenge; 12.5 μg per antigen IP at 28 and 14 days prior to challenge. The format is in vivo. From the text: Mice. Inbred C57BL/6 (6-8 weeks old) were purchased from Jackson Laboratories (Bar Harbor, Me.). Mice were maintained under micro-isolator conditions in the animal facility at the University of Maryland Dental School (Baltimore, Md.), in accordance with protocols reviewed and approved by the Institutional Animal Care and Use Committee (IACUC).
Bacterial strain and preparation of infectious inocula. […] Cells were centrifuged, rinsed with PBS, counted via a Petroff Hausser counter, and diluted to 1×10^6 CFU/ml. […]
Bone Cultures. […] In addition, non-vaccinated mice (alum alone) and mice vaccinated with the quadrivalent vaccine, the single additional antigen SA0119, or all antigens combined were euthanized at 21 days post infection and tibial colony-forming units (CFUs) were determined as described above. Dissemination of the S. aureus infection was monitored by homogenizing kidneys and plating the homogenates as described above.
Statistical Analysis. Mean and SD were calculated and analyzed using Student's t-test with a P value of <0.05 to determine statistical significance. Experiments determining the percentage of mice still infected after vancomycin or PBS treatment were analyzed using Fishers Exact test with a p value of <0.05 for statistical significance. […]

B1: SACOL0119 vaccine: planktonic-specific monovalent vaccine; S. aureus polypeptide SA0119, SEQ ID NO:14 (protein, listed as Staphylococcus aureus)
chain: MKKLATVGSLIVTSTLVFSSMPFQNAHADTTSMNVPNKQSQNVQNHRPYGGVVPQGMTQAQYTELEKTLPQLSAGSNMQDYNMKLYDATQNIADKYNVIITTNVGVFKPHAVRDMNGHALPLTKDGNFYQTNVDANGVNHGGSEMVQNKTGHMSQQDHMNQNTHMNQQPQIQQGHMQSSNHQMMSPKANMHSSNHQMNQSNKKVLPAAGESMTSSILTASIAALLLVSGLFLAFRRRSTNK
With B1, the “bacterial clearance (percent of animals cleared of S. aureus)” value came out at 40%.
